B1: epitope-tagged SENP3 (enzyme)
chain: not shown
notes: SENP3, human; Blots used anti-HA, anti-GFP and anti-MYC antibodies; also called SUMO protease SENP3; source: HEK293FT, transiently transfected; in lysate (co-IP) and co-purified with C-terminal FLAG-tagged PELP1 (cross-linking)
B3: N-terminally FLAG-tagged PELP1 Rix1 domain (1-642aa) (domain or fragment)
chain: not shown
notes: PELP1, human, N-terminal Rix1 domain, residues 1-642; Two copies stand in the PELP1-WDR18 heterotetramer of the cryo-EM structure; also called Rix1 domain of PELP1; source: HEK293FT, transiently transfected; not shown: FLAG, N-terminal, kept

Series [1] deals with T1, C-terminal FLAG-tagged PELP1 (full length) (human, UniProt Q8IZL8 1-1130).
T1 construct: also called C-terminal PELP1 IP; source: HEK293FT, transiently transfected; in lysate (co-IP) and purified with the Rix1 complex via the C-terminal FLAG tag (cross-linking); not shown: FLAG, C-terminal, kept
The experiment in a line: cross-linking; BS3 cross-linking with mass spectrometry of the Rix1 complex purified via the C-terminal FLAG tag on full-length PELP1; 2.0 uM complex, 50 mM Hepes pH 7.3, 600 mM NaCl, 5 mM MgCl2, 5% glycerol, room temperature 10 min; BS3 1.2 mM (methods) or 0.12 mM (results). Conditions: both partners purified.

Series [2] concerns the target B3. Description: cross-linking; BS3 cross-linking with mass spectrometry of the PELP1 Rix1 domain-WDR18 sub-complex purified via the N-terminal FLAG tag; 6.0 uM complex, 1.0 mM BS3, 50 mM Hepes pH 7.3, 600 mM NaCl, 5 mM MgCl2, 5% glycerol, room temperature 10 min. The following applies: both partners purified.
In the series “epitope-tagged SENP3” the target is B1. The experiment in a line: cross-linking; BS3 cross-linking with mass spectrometry of the Rix1 complex purified via the C-terminal FLAG tag on full-length PELP1; 2.0 uM complex, 50 mM Hepes pH 7.3, 600 mM NaCl, 5 mM MgCl2, 5% glycerol, room temperature 10 min; BS3 1.2 mM (methods) or 0.12 mM (results). The following applies: both partners purified.

Series [3] deals with the molecule itself. Description: cryo-EM structure; PELP1 Rix1 domain and WDR18 co-expressed in HEK293FT and co-purified on anti-FLAG gel; 150 mM NaCl, 50 mM Hepes pH 7.7, 5 mM MgCl2; 0.24 mg/ml; C2 symmetry, 2.7 Å.

T1 sequence (Q8IZL8 whole entry): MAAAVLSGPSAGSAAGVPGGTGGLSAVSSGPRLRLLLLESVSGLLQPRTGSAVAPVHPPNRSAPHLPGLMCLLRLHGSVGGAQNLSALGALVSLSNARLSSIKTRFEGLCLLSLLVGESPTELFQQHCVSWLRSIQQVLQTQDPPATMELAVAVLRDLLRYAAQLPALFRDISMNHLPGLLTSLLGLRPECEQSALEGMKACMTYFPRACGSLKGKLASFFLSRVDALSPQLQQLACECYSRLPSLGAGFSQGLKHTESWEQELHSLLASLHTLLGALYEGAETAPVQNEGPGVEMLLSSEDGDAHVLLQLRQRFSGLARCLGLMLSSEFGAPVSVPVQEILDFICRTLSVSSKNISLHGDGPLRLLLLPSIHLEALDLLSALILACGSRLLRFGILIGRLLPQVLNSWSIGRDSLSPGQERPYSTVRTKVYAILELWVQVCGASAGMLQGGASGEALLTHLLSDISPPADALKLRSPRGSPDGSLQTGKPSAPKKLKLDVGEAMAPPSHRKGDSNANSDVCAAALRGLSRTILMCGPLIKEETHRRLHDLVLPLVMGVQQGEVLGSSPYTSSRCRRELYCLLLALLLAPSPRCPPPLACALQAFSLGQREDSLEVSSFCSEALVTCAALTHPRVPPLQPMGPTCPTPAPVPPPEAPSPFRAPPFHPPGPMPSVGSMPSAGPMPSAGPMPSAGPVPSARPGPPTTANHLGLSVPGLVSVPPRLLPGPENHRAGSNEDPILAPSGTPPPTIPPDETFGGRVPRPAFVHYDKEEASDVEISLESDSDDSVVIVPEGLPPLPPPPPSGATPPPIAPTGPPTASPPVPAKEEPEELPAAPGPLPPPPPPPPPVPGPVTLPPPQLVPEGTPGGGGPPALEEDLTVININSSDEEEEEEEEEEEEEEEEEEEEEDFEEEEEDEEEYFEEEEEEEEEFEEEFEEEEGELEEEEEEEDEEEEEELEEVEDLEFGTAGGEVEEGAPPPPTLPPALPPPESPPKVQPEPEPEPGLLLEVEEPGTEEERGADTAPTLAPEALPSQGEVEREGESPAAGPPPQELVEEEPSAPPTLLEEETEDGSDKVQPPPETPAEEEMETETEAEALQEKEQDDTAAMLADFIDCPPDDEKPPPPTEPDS
epitope-tagged SENP3, sequence (Q9H4L4 whole entry): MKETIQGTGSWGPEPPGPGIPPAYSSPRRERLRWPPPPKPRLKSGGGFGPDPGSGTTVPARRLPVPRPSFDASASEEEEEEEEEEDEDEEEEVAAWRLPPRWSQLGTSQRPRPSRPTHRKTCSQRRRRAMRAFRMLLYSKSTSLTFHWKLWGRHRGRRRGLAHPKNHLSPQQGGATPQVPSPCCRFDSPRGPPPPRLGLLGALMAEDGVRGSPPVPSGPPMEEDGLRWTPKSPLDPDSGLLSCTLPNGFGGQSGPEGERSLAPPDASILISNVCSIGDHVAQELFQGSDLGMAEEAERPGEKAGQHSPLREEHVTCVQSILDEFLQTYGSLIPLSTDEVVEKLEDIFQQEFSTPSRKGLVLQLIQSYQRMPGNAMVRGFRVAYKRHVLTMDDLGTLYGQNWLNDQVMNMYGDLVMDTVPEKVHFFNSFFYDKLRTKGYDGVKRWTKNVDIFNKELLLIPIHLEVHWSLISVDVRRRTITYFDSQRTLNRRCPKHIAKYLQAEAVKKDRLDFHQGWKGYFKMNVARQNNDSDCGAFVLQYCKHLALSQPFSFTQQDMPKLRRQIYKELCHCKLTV

On to B1, for which the binding result in series [1] is on record as “binds”.

B2: C-terminally HA-tagged WDR18 (full length) (natural protein, human, UniProt Q9BV38 1-432, looked up)
chain: MAAPMEVAVCTDSAAPMWSCIVWELHSGANLLTYRGGQAGPRGLALLNGEYLLAAQLGKNYISAWELQRKDQLQQKIMCPGPVTCLTASPNGLYVLAGVAESIHLWEVSTGNLLVILSRHYQDVSCLQFTGDSSHFISGGKDCLVLVWSLCSVLQADPSRIPAPRHVWSHHALPITDLHCGFGGPLARVATSSLDQTVKLWEVSSGELLLSVLFDVSIMAVTMDLAEHHMFCGGSEGSIFQVDLFTWPGQRERSFHPEQDAGKVFKGHRNQVTCLSVSTDGSVLLSGSHDETVRLWDVQSKQCIRTVALKGPVTNAAILLAPVSMLSSDFRPSLPLPHFNKHLLGAEHGDEPRHGGLTLRLGLHQQGSEPSYLDRTEQLQAVLCSTMEKSVLGGQDQLRVRVTELEDEVRNLRKINRDLFDFSTRFITRPAK
notes: WDR18, human, full length; The HA tag is stated for the cryo-EM sample; Two copies stand in the heterotetramer; source: HEK293FT, transiently transfected; in lysate (co-IP) and co-purified with FLAG-tagged PELP1 constructs on anti-FLAG gel (cryo-EM, cross-linking); not shown: HA, C-terminal, kept
As for B2, the binding result (in series [2]; with epitope-tagged SENP3; in series [1]) was “binds” each time.
For the molecule B3, in series [3], the stoichiometry N (as a rule, a count of units in the complex or per binding partner) amounted to 2.

The record behind these values is article PMC9646879, “Cryo-EM reveals the architecture of the PELP1-WDR18 molecular scaffold” (Nature Communications, 2022).
